# Reference: the nanobody polyreactivity screen of Harvey et al. (2022)
# Assay: yeast display, Sf9 membrane polyspecificity reagent, FACS + sequencing; frameworks hold sequencing errors
# Summary of the method: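 Genes from sorted yeast were amplified by colony PCR, read by MiSeq 2 × 250 sequencing and filtered on CDR length. These cells carried a synthetic nanobody library in Saccharomyces cerevisiae BJ5465 and were sorted by FACS into low and high (top ~1%) gates on anti-HA and streptavidin fluorescence. Polyreactivity is labelled according to the gate of origin.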
row,Sequence,polyreactivity (PSR sort gate)
1,QVQLVESGGGLVPAGGSLRLSCAASGRIFPQYAMGWYRQAPGKERELVAAISYRGGSTYYADSVKGRFTISRDNAKNTVYSQMNSLKPEDTAVYYCAAKRYNYWGQGTQVTVST,high polyreactivity
2,QVQLVESGGGLVQAGGSLRLSCAASGFTFVYNAMGWYRQAPGKERELVAAISKSGDRTYYADSVKGRFTISRDYAKNTVYLQMNSLKPEDTAVYYCNAKVVHGYQRFNYWGQGTEVTVSS,high polyreactivity
3,QVQLVESGGGIVQAGGSLRLSCAASGSTLHSYALGWYRQAPGKERELVAAISFRGGSTYADSVKGRFTISRDNAKNTVYVQMNSLKPEDTAVYYCATRRTRADWYIVGYDYWGQGTQVTVSS,low polyreactivity
4,QVQLVESGGGLVQAGGSLRLSCAASGRTFQTNAMGWYRQAPGKVRELVAAISSTGGSTYYADSVKGRFTISRDNAKYTVYLQMNSLKPEDTAVYYCNAGRTYRYDYWGQGTQVTVSS,high polyreactivity
5,QVQLVESGGGLVQAGGSLRLICAASGSIFAYNAMGWYRQAPGKERELVAAITDSAGSTYYADSVKGRFTISRDNAKNTVYLQMYSLKPEDTAVYYGAKYTTRGVYRYWPKDMDYWGQGTQVTVSS,low polyreactivity
6,QVQLVESGGGLVQAGGSLRLSCAASGTTFRIYSMGWYRQAPGKERELVAGITRRGGSTFYADSVKGRFTISRDTAKNTVYFQMNSLKPEDTAVYYCAARFRGGMDYWGQGTQVTVSS,high polyreactivity
7,QVQLVESRGGLVQAGGSLRLSCAASGRTFTLNAMGWYRQAPGKERELVARIDWRGITYADSVKGRFTISRDNAKNTVYLQMNSLKPEDTAVYYCAADYVQGFGFYYQWHYDYWGQGTQVTVSS,low polyreactivity
8,QVQLVESGGGLVQAGGSLRLSCAASGRTFYNYAMGWYRQAPGKERELVATINRGVSTNYADSVKGRFTISRDNEKNTVYLQMNSLKPEDTAVYYCAARKRPPYGYGYWGQGTQVTVSS,high polyreactivity
9,QVQLVESRGGLVQAGGSLRLSSAASGLTLYGYTMGWYRQAPGKERELVATMTSGRDSTYYADSVKGRFTISGDNAKNTFYLEMHCLKPEDTAVYYCGAPYAGWRDGGDYWGQGTQVTVSS,low polyreactivity
10,QVQLVESGGGLVQAGGSLRLSCAASGSIFWNYAMGWYRQAPGKERELVASITSGGSTNYADSVKGRFTISRDNEKNTVYLQMNSLKQEDTAVYSCNTDDDSSYTGYYSWGQGTQVTVSS,low polyreactivity
11,QVQLVESGGGLVQAGGSLRLSCAASGSIFDYYAMGWYRQAPGKERELVAAINISGGDTYYADSVKGRFTISRDNAKNTVYLQMNSLKPEDTAVYYCAADWVTWWFSRVGWDYGYWGQGTQVTVSS,low polyreactivity
12,QVQHEESGGGLVQAGGRLRLSCAASGRTFFSNAMGWYRQAPGKERELVAAISNGDNTYYADSVKGRFTISRDNAKNTVYLQMNSLKPEDTAVYYCATAYPEWAVWGYDYWGQGTQVTVSS,low polyreactivity
13,QVQLVESGGGLVQAGGSLRLSCAASGNTIRSYAMGWYRPAPGKERELVAAISGRGGSTYYADSVKGRFTISRDNAKNTVYLEMNSLKPEDTAVNYCAAESRRVNYANDYWGQGTEVTVSS,high polyreactivity
14,QVQLVESGGGLVQAGGSLRLSCAASGYTFYINTMGWYRQAPGKEREFVAAITWSGGSTYYADSVKGRFTISRDNAKNTVYLQMNSLIPEDTAVYYCAADLYVGDMDYWGQGTQVTVSS,low polyreactivity
15,QVHLVESGGGLLQAGGSLRLSCAASGITFSRNVMGWYIQAPGKERELVAAISTSGGSTYYADSVKGRFTISRDNAKNTVYLQMNSLKPEDTAGYYCAKDITVTYPGLDYDYWGQGTQVTVSS,low polyreactivity
16,QVQLVESGGCLVQAGGRLRLSCAASGRIFHDNGMGWYRQAPGKERELVAAISRGGSTYYADSVKGRFTISRDNAKNTVYLQMNSRKPEDTAVYYCNVDSFRYRHTGYCDTRYGYWGQGTQVTVSS,high polyreactivity
17,QVHLVESGGGLVQAGGSLRLSCAASGRIFRRNTMGWYRQAPGKERELVAAITSSGGSTYADSVKGRFTISRDNAKNTVYLQMNSLKPEDTAVYYCATYVAYHRGYRTYDHWGQGTQVTVSS,low polyreactivity
18,QVQLVESGGGLVQAGGSLRLSCAASGSIIGDNTKGWYRQAPGKERELVAAISWRGGSTYYADSVKGRFTISLDNAKNTVFLQMNSLKPEDTAVYYCIGGPGGYDYWGQGSQVTVSS,low polyreactivity
19,QDQLVESGGGIVQAGGSLRLSCAASGRTFGINAMGWSRQAPGKERELVAVISCGDGGTYYADSVKWRFTISRDNAKNTVYLQMKSLKPEDTAVYYCSSEYQSTSLWGGHFVINPYDYWGQATQVTVSS,low polyreactivity
20,QVQLVESGGGLVQAGGSHRLSCAASGSTLGDYAMGWYRQAPGKERELVAAISNGVSTNYADSVKGRFTISRDNAKNTVYLQKNSLKPVDTAVYYCNAGSGWGSLLEYDYWGQGTKVTVSS,low polyreactivity

row,Sequence,polyreactivity (PSR sort gate)
1,QVQLVESGGGLVQAGGSLRLSCAASGFTFHGNAMGWYRQAPGKERELVAVISSSGASTYYADSVKGRFTISRDNAKNTVYLQMNSLKPEDTAVYYCAKVSSPLLYVSSDYDYWGQGTQVTVSS,high polyreactivity
2,QVQLVESGGGLVQAGGSLRLSCAASGSIFSRYAMGWYRQAPGNERELVAAITSGGSTKYADSVKGRFTISRDNAKNTVYLQMNSLKPEDTAVYYCNADRRFRKYPFGYWGQGTQVTVSS,high polyreactivity
3,QVQLVESGGGLDQEGGSLRLSSAASGRTFRGYAMGWYIQAPGKEREIVDAISRGTVGTYYADSVKGRFTISRDNAKNTVYLQMISLKPEDTAVYYCAADRFANFSNLRLGYYSWGQGTQLTVSS,low polyreactivity
4,QVQLVESGGGLVQAGGSLRLSCAASGQTFRRYDMGWYRQAPGKEREFVAAITWSTGSTYYADSVKGRFTISRDYAKNTVYLQMNSLKPEDTAGYYCAARSGYFYRYYKYDYWGQGTQVTVSS,high polyreactivity
5,QVQLVESGGALVQAGGSLRLSCAASGITFEVYAMGLYRQAPGKAREFVAAITGSGSRTYYADSVKGRFTISRDNAKNTVYLQMNSLKPEDTAVYYCAVKGFSTRSYREFDYWAQGTQVTVSS,low polyreactivity
6,QVQLVESGGGLVQAGGSLRRSCAAYGRIFTMNAMGWYRQAPGKESELVAVISRSGCSTYYADSVKGRFTISRDNAKNTVYLQMNSLNPEDTAVYYCNAVPIYYAWRRNKPFDYWGLGTQVTVSS,low polyreactivity
7,QVQLVESGGGLVQAGGSLRLSCAASGFTFVSYAMGWYRQAPGKERELVAAISSRVGSTYYADSVKGRFTISRDNAKNTVYLQMNSLKPEDTAVYYCAASFTDRVTLDYFRSYAFEYWGQGTQVTVSS,low polyreactivity
8,QVQLVESGGGLVQAGGSLRLSCAASGRTFGGNSMGWYRQAPGKERELVAAISGSGGSTYYADSVKGRFTISRDNAKNTVYLQMNSLKPEDTAVYYCAKASRKGWRYDSWGQGTQVTVSS,high polyreactivity
9,QVQLVESGGGLVQAGGSLRLSCAASGRIFPLYAMGWYRQAPGKERELVARITYSGGSTYYADSVKGRFTISRDNAKNTVYLQMNSLKPEDTAVYYCAKDTYGRSTRNGYWGQGTQVTVSS,low polyreactivity
10,QDQHVESGGGFVQAGGSLRLICAASGYTFYGNPMGWYRQAPGKEREFVASINYNDDSTYYADSVKGRFTISLDNAKNTDYLQMNSLKPEDTAVYYCAAEYRTRGYHWIYYWGQGTQVTVSS,low polyreactivity
11,QVQLVESGGGLVQAGGSLRLSSAASGLTFHRYAMGWYRQAPGKERELVAGISWSGASTYFADSVKGRFTISRDNAKNTVYLQMNSLKPEDTAVYYCAAVVPGLAYYRHGYWGQGTQVTVSS,high polyreactivity
12,QVQLVESGGGLVQAGGSLRLSCAASGSTFERYVMGWYSQAPGKARELVADINSGGSTNYADSVKGRFTISRDNAKNTVYLQMNSLKPEDTAVYYCAAKRRYYGPWSRMGYDYWGQGTQVTVSS,low polyreactivity
13,QVQLVESGGGLVQAGGSLRLSCAASGRTFAPNAMRWSRQAPGKERELVARITWSGTDTYYADSVKGRFTISRDNAKNTVYLQMNSLKPEDTAVYYCAADARYSRRYYYWGQGTQVTVSS,low polyreactivity
14,QVQLVESGGGLVQAGGSLRLSCAASGRIFYGNAMGWYRQAPGKERELVAAISKRGGSTHYADSVKGRFTISRDNAKNPVYLQMNSLKPEDTAVDYCATDSYYVGAVHYYYWGQGTQVTVSS,high polyreactivity
15,QVQLVESGGGLVQAGGSLRFSCAASGNTFYQYAMGWYRQAPGKERELVAAIVWSGGTTYYADSVKGRFTISRDNAKNTVYLQMTSLKPEDTAVYYCNADYDRGPYDYDSWGQGTQVTVSS,low polyreactivity
16,QVQLVESGGGLVQAGGSLRLSCAASGGTFAYYAMGWSRQAPGKERELVAAISSGGSTNYADSVKGRFTISRDNAKNTVNLQMNSLKPEDTAGYFCAADYYGPFYGYTYDYWGQGTQVTVSS,low polyreactivity
17,QVQLVESGGGLVQAGGSLRLSCAASGYTFRQYTIGWYRPAPGKERELVDAISRSGGSTYYADSVKGRFTISRDNAKNTVFLQMNSLKPEDTAVYYCNAEGYGRTDGFGYDYWGQGTQVTVSS,high polyreactivity
18,QVQLVESGGGLVQAGGSLRLSCAASGSNIERNAMGWYIQAPGKERELVANITWSGVSTYYADSVKGRFTISRDNAKNTVYLQMNSLKPEDTAVYYCNADYSYRHWYDPGQYGQAMGYWGQGTQVTVSS,low polyreactivity
19,QVQLVESGGGLVQAGGSLRLSCAASGSIFKRNDMGWYRQAPGKDRELVASISSGGSTHYADSVKGRFTISRDNAKNTVSLQMNSLKPEDTAVYYCAATSIRWSVGSFRRDYWGQGTQVTVSS,low polyreactivity
20,QVQLVESGGGLFQAGGSLRISCAASGLTFKINAMGWYRQAPGKERELVAAISSGTSTNYADSVKGRFTISRDNAKNTVYLQMNSLKPEDTAVYYCAARGFWGVAYRYYYWGQGTQVTVSS,high polyreactivity
